The values that follow come from paper doi:10.1101/2024.05.27.596091.

Where two headings read alike, the source gives them in different places.

In assay [1] the target is αβ-tubulin (bovine) (UniProt Q6B856). The experiment in a line: co-sedimentation.
Assay [2] has the same target. The experiment in a line: co-sedimentation. The source holds these as a separate data set.

“αβ-tubulin (from UniProt Q6B856 1-445) (complex)”: the critical concentration for spontaneous nucleation with αβ-tubulin (bovine) [1] worked out at 20.7 µM; with αβ-tubulin (bovine) [2], 3.9 µM.
